Measurements taken from patent US6645504B1, “Bystander suppression of type I diabetes by oral administration of glucagon” (AutoImmune Inc., priority 1987, dated 2003).

Experiments:
MBP specific T-cells = assay: In vitro suppression of proliferative responses by supernatants; assay type: cell-based, Lewis rats; conditions: supernatants of splenocytes from fed animals stimulated in vitro with MBP; FIG. 1
Protocol: Induction Of Oral Tolerance. Rats were fed 1 mg of MBP dissolved in 1 ml PBS, or PBS alone, by gastric intubation using a 18-gauge stainless steel animal feeding needle (Thomas Scientific, Swedesboro, N.J.). Animals were fed five times at intervals of 2-3 days with the last feeding two days before immunization. The purpose of this was to induce tolerance.
In Vitro Suppression Of Proliferative Responses By Supernatants. Spleen cells were removed 7-14 days after the last feeding and a single cell suspension prepared by pressing the spleens through a stainless steel mesh. For preparation of supernatants, spleen cells at a concentration of 5×10^6 cells/ml were stimulated in vitro with MBP (50 μg/ml) in 10 ml of proliferation medium. Proliferation medium consisted of RPMI 1640 (GIBCO, Grand Island, N.Y.) supplemented with 2×10^−5 M 2-mercaptoethanol, 1% sodium pyruvate, 1% penicillin and streptomycin, 1% glutamine, 1% HEPES buffer, 1% nonessential amino acids and 1% autologous serum. […] Cultures were harvested onto fiberglass filters using a multiharvester and counted using standard liquid scintillation techniques.
Purification Of T-Cell Subsets. […] The quantity of magnetic beads used was calculated as being 10 times the estimated target cell population. […]

insulitis = assay: Suppression of insulitis in NOD mice by oral administration; assay type: in vivo; conditions: fed orally
Protocol: NOD mice (Taconic Labs) were fed one mg of glucagon, or one mg of porcine insulin (both commercially purchased) or equal molar amounts of insulin A-chain, B-chain and B-chain peptides described below (all insulin fragments having been synthesized) twice weekly for five weeks and sacrificed at ten weeks of age.
Control animals were fed a non-pancreatic (i.e., unrelated) peptide, GAP. Insulitis was measured as a semiquantitative insulitis score according to the method described in Zhang, Z. J., PNAS(USA), 88:10252-10256, 1991.
The insulin B-chain peptides corresponded to amino acid residues 1-12 (B1-12), 10-22 (B10-22), 11-30 (B11-30) and 23-30 (B23-30). All animals were fed 10 times over three weeks.

MBP line = assay: Transwell culture suppression of MBP T cell line; assay type: cell-based, Lewis rats
From the text: Transwell Cultures. A dual chamber transwell culture system (Costar, Cambridge, Mass.), which is 24.5 mm in diameter and consists of two compartments separated by a semi-permeable polycarbonate membrane, with a pore size of 0.4 μm, was used. The two chambers are 1 mm apart, allowing cells to be coin-cubated in close proximity without direct cell-to-cell contact. To measure in vitro suppression of proliferative responses in transwell cultures, 5×10^4 MBP- or OVA-specific line cells, raised and maintained as previously described (Ben-Nun, A. et al., Eur. J. Immunol. 11:195, 1981), were cultured with 10^6 irradiated (2,500 rad) thymocytes, in 600 μl of proliferation media in the lower well. Spleen cells from orally tolerized rats or controls (fed BSA) were added to the upper well (5×10^5 cells in 200 μl). Spleen cells were removed 7-14 days after the last feeding, and a single cell suspension was prepared by pressing the spleens through a stainless steel mesh. MBP and OVA (50 μg/ml) were added in a volume of 20 μl. […] In some experiments, modulator cells were added in the lower well together with responder cells, and in these instances modulator cells were irradiated (1,250 rad) immediately before being placed in culture. Proliferation media consisted of RPMI 1640 (Gibco Laboratories, Grand Island, N.Y.) supplemented with […] 2-mercaptoethanol, 1% sodium pyruvate, 1% penicillin and streptomycin, 1% glutamine, 1% HEPES buffer, 1% nonessential amino acids, and 1% autologous serum. Each transwell was performed in quadruplicate. The transwells were incubated at 37° C. in a humidified 6% CO2 and 94% air atmosphere for 72 hours. After 54 hours of culture, each lower well was pulsed with 4 μCi of [^3H]thymidine and at 72 hours split and reseeded to three wells in a round-bottomed 96-well plate (Costar) for harvesting onto fiberglass filters and counting using standard liquid scintillation techniques. Percent suppression =100×(1−Δ A cpm responders cultured with modulators/Δ cpm of responders).

[1] = irradiated modulators in lower well with MBP line + MBP 50 μg/ml
[2] = modulators in upper well, MBP line + MBP in lower well

B1: MBP: Guinea pig myelin basic protein purified from brain tissue (protein, UniProt P25188 1-167, looked up)
Myelin basic protein: ASQKRPSQRHGSKYLATASTMDHARHGFLPRHRDTGILDSIGRFFGSDRAAPKRGSGKDSHHAARTTHYGSLPQKSQRSQDENPVVHFFKNIVTPRTPPPSQGKGRGLSLSRFSWGAEGQKPGFGYGGRADYKSKGFKGAHDAQGTLSKIFKLGGRDSRSGSPMARR
For B1, the “proliferation of the MBP line after addition of supernatants” value (MBP specific T-cells) was “reduction in the proliferation of the MBP line”, the “suppression of insulitis (in words)” value (insulitis) was “No suppression was observed” and the “Insulitis Score” value (insulitis; amount (mg) per Table 5, sacrificed at ten weeks of age) was 2.14. The “Percent Suppression” value (MBP line; [1]) was 51%, the Δ cpm (MBP line; [1]) was 18,412 ± 1,867 cpm and the “Percent Suppression” value (MBP line; [2]) was 59%. For the same molecule, the Δ cpm (MBP line; [2]) was 15,620 ± 2,294 cpm.
